From the supplement of paper PMC12764529
± gives the half width of the 95% confidence interval.

Tests used:
[1] = folding stability dG unfold from chymotrypsin proteolysis; higher = more stable
Protocol: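 Folding stability of de novo designed mini-proteins (<80 aa, no Cys; designed by TrROS, TrMRF, ProteinMPNN and the joint model) was measured by cDNA display proteolysis with trypsin and chymotrypsin. Each protease was used at 11 concentrations in a threefold dilution series plus a no-protease condition. K50 was inferred by Bayesian fitting of sequencing counts, and dG unfold was derived against a sequence-predicted unfolded-state K50 (Tsuboyama et al. method). Sequences shown include variable-length N-terminal GS-type padding (SAGGSAGG...) inside a display construct carrying a PA tag. Rows were kept only if the AF2 dimer inter-PAE was >15, to exclude likely homo-oligomers.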

[2] = folding stability dG unfold (combined trypsin and chymotrypsin); higher = more stable
Summary of the method: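 Unfolding free energy was derived, per protease or combined, by relating Bayesian-fitted K50 values from sequencing counts to a sequence-predicted unfolded-state K50 and a shared folded-state K50. The underlying digests exposed cysteine-free mini-proteins under 80 residues, in a PA-tagged cDNA display construct, to trypsin and chymotrypsin at 11 threefold-diluted concentrations and to a no-protease condition. A filter kept only designs with AlphaFold2 dimer inter-PAE above 15.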

Sequence | folding stability dG unfold [1] [kcal/mol] | folding stability dG unfold [2] [kcal/mol]
SAGKMTIEIVVEVKPGMTEEELKEKLEELVKKLKEEFPELKNLEIKIVEVKVERLEDGTLRVTVKIEVKSAG [r5_985_TrROS_Hall] | 3.08 ± 0.24 | > 6
SAGGSAGGSDIEIIINPNMSLEQAKKFANYLAQENNIPIEIEIIPPPKPEPEPERDPEDGKPKSAGGSAGGS [r12_159_TrROS] | -0.232 ± 0.36 | < -1
SAGGSAGGSAGTATLELTVGGKKATATVEPDPDSPAPVVTVKVGDKPVVLNPDGTWTPADSAGGSAGGSAGG [r11_732_TrMRF] | -0.908 ± 0.2 | < -1
STRTVPIPIRWDNGRLSPDDIRNAIKKALPPGENVKITEETIQNFWQEWAGKNGKPMTPEDFPIRIEVKKSA [r9_197_TrROS] | 0.0542 ± 0.36 | -0.198 ± 0.27
SAGGSAGGSAGGVTVSPEEYLATFPPGLTLRDSAGNLHELGDRAPVDPAAPVTLLSPEELSAGGSAGGSAGG [r7_507_JUSTAS] | 0.464 ± 0.039 | -0.18 ± 0.12
SAGGSAGGSAGGGPAKALITSPDGSKAEATVTVDTATGTVTLTVENASLPPDWKLELLGSAGGSAGGSAGGS [r10_306_TrMRF] | 0.768 ± 0.065 | 0.0987 ± 0.23
SAGGSAGGSAGGSPLTLTRTLTLTRTTTDPDVPGTTTTETRTLTLTTELTLPPLPPGTPSAGGSAGGSAGGS [r4_231_TrROS_Hall] | 0.588 ± 0.18 | < -1
SAGGSAGGSAGSMVEVTYEPDPATGGSRIVTTTRFPDRNTVTVTELDPNAGVPLETVEVESAGGSAGGSAGG [r11_676_JUSTAS] | -0.16 ± 0.029 | -0.433 ± 0.089
SAGGSAGGSAGGPERELTVPITTPDGSGKSISAELGEEELEKLIEENPEWKEAIIEARRESAGGSAGGSAGG [r7_637_JUSTAS] | 0.975 ± 0.059 | 0.483 ± 0.11
SAGGSAGGSAGPDVEVVIIPVDPETGEPLDALPIPIPSPEGGLVDEIVKAIPPDRYRVLASAGGSAGGSAGG [r17_339_TrMRF] | -0.336 ± 0.45 | < -1
SAGGSAGGSAGGKDEKPKPLKVPVIVAPAPEYLELAKKLLPPDKAKVIEKKDDKVVIAFGSAGGSAGGSAGG [r7_670_TrMRF] | -0.425 ± 0.32 | -0.533 ± 0.21
SAGGSAGGSAMKLLETKVSRSLVPETGVVVTPVTTTTLGPGGKREVIEETEVRVLPPDAPPPSAGGSAGGSA [r18_95_JUSTAS] | -0.625 ± 0.19 | < -1
SAGGAGQRVVLSSDKSLEDLEKLREENPDVSIEVTEINKLEPVKPENGGLEEVPSEIVAELTPGERRSAGGS [r8_172_JUSTAS] | 0.401 ± 0.051 | -0.0394 ± 0.076
SAGRIKSIQINPYENPNGQYPITVRVRWPGNGKERDRNFPMSPNDARNQAKELAKELPGKPLEIDEITSAGG [r19_317_TrROS] | -0.545 ± 0.15 | -0.943 ± 0.19
SAGGSAMSLEELKKKKVKVKVKEIEVPKGAKIPDGKTVKEGEKILVVDGKVYLPNGKLIAEVEVEESAGGSA [r15_12_TrROS_Hall] | -0.621 ± 0.22 | -0.629 ± 0.47
SAGGMTLDQLKENIKSVEVYPHPDGGYRMRVQIPQPNPDGKPKPREFNIPMPPNDPNMSADNVIDQILSAGG [r13_319_TrROS] | -0.353 ± 0.27 | < -1
SKTIYFPIPNDDPEEAVEWIADKLLEEHGHKIKDVEIPHKNGYYVRIEVDPNNPKIDIEVWPYDPDGEPLSA [r9_173_TrROS] | 0.728 ± 0.18 | 0.534 ± 0.52
SAGGSAGGSAGGSSMLTTRPLPGGRTLLRTTLPDGTILVTRYDAAGEPVLETLPPSTPLLSAGGSAGGSAGG [r7_215_JUSTAS] | 0.102 ± 0.27 | < -1
SAGGSASMRTVTLTSTETLELKDPSGNLRVETTPVVVTVPVEVPDPNLPPPAVNSPVLTELLLRLLSAGGSA [r15_728_JUSTAS] | 0.413 ± 0.064 | 0.0436 ± 0.084
SAGGSAGGSAGGMTITVPVEGVEEAIEKAKKEHPNTEIKITLLKPGGEKATTRTVKILGSAGGSAGGSAGGS [r10_741_JUSTAS] | -0.403 ± 0.13 | -0.951 ± 0.29
SAGGSAGGSAGGGYVTLSHEIPPDQSVEITAPDGKKAKQERDPATKTVTYKISPELYKLLSAGGSAGGSAGG [r7_155_JUSTAS] | -0.855 ± 0.56 | < -1
SAGGSAGGSAGMGSTSTSTSITPTPEGRIVVDTTTTFTDPGGVPVGSTTTTTTLPPGAAASAGGSAGGSAGG [r11_898_JUSTAS] | 0.242 ± 0.066 | -0.279 ± 0.16
SMTLVGTTTLPNATVTTYKNETKYIVLTYDPVEAGEPAAVSYVEKYEGNKVVKKKKVAPEEIEKAIEELLSA [r9_57_JUSTAS] | 0.609 ± 0.32 | 0.247 ± 0.48
